Data reported in patent US20140072613A1 (published 2014).

Key:
Assay in all cases: cell-based or functional assay
ZIPK(h) = ZIPK(h) (human, UniProt O43293 1-454, limits assumed)
Met(D1246N)(h) = Met(D1246N)(h) (human, UniProt P08581-2 974-1408, limits assumed)
CHK2(h) = CHK2(h) (human, UniProt O96017 5-543, limits assumed)
KDR(h) = KDR(h) (human, UniProt P35968 790-1356, limits assumed)
cKit(h) = cKit(h) (human, UniProt P10721 544-976)
Pim-3(h) = Pim-3(h) (human, UniProt Q86V86 1-326)
CaMKIIγ(h) = CaMKIIγ(h) (human, UniProt Q13555 1-558, limits assumed)
CHK2(I157T)(h) = CHK2(I157T)(h) (human, UniProt O96017 5-543, limits assumed)
PKBβ(h) = PKBβ(h) (human, UniProt P31751 1-481, limits assumed)
EphB1(h) = molecular target: T1, EphB1(h) (human, UniProt P54762 564-984, limits assumed)
T1 sequence (looked up): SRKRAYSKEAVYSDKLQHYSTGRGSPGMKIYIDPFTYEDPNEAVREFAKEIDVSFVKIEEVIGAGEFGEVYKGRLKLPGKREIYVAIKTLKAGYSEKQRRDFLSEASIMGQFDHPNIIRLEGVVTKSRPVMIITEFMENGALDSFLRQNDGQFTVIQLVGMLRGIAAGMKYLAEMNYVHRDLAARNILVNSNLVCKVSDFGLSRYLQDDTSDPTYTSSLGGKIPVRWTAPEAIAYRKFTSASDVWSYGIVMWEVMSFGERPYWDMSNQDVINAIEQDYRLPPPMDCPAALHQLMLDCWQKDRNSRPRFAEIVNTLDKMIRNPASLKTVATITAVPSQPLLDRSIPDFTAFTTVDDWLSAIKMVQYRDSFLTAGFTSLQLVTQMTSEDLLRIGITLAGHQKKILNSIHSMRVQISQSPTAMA

PKCµ(h) = molecular target: T2, PKCµ(h) (human, UniProt Q15139 1-912)
T2 sequence (looked up): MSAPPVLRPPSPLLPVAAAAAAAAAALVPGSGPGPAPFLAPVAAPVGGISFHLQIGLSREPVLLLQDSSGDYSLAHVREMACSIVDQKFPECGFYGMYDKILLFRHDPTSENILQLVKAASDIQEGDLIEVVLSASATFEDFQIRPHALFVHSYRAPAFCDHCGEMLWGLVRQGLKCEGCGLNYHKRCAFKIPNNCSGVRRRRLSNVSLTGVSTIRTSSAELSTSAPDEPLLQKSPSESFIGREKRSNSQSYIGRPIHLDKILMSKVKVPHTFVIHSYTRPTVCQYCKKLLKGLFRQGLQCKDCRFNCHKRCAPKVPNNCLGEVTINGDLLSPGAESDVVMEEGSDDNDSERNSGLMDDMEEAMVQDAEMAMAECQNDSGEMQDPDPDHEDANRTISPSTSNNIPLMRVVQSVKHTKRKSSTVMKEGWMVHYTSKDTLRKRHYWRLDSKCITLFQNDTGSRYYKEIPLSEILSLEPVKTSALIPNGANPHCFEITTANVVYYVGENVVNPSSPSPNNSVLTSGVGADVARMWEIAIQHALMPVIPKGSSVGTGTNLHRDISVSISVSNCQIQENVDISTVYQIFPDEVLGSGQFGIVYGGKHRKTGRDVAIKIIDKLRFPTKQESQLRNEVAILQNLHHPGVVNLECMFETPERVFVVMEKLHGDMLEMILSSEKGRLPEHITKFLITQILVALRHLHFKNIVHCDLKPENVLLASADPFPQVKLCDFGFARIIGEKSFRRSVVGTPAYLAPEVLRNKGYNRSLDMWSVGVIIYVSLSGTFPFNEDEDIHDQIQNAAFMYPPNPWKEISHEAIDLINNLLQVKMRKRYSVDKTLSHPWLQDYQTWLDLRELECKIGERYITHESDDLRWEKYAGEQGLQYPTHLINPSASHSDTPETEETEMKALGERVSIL

PKCθ(h) = PKCθ(h) (human, UniProt Q04759 1-706)
CDK7/cyclinH/MAT1(h) = CDK7/cyclinH/MAT1(h) (human, UniProt P50613 1-346; P51946 1-323; P51948 1-309)
HIPK2(h) = HIPK2(h) (human, UniProt Q9H2X6 165-564, limits assumed)
PDGFRβ(h) = PDGFRβ(h) (human, UniProt P09619 557-1106, limits assumed)
Syk(h) = Syk(h) (human, UniProt P43405 1-635)
Rsk3(h) = Rsk3(h) (human, UniProt Q15349 1-733)

Chain of PDGFRβ(h) (P09619 557-1106 limits assumed): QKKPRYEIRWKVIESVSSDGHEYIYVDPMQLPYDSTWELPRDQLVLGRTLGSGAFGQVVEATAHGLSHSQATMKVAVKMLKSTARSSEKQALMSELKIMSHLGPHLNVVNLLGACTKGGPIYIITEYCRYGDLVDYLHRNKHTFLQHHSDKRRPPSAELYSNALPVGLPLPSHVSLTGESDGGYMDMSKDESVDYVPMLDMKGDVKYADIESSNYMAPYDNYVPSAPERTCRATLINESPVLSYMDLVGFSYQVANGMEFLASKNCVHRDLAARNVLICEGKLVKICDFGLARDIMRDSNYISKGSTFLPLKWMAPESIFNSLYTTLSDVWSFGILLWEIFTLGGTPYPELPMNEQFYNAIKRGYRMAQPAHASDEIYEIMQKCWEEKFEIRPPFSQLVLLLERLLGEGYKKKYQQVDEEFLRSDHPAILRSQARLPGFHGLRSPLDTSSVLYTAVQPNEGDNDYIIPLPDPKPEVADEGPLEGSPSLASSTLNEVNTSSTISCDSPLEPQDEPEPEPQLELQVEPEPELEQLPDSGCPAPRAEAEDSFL
Chain of PKBβ(h) (P31751 whole entry): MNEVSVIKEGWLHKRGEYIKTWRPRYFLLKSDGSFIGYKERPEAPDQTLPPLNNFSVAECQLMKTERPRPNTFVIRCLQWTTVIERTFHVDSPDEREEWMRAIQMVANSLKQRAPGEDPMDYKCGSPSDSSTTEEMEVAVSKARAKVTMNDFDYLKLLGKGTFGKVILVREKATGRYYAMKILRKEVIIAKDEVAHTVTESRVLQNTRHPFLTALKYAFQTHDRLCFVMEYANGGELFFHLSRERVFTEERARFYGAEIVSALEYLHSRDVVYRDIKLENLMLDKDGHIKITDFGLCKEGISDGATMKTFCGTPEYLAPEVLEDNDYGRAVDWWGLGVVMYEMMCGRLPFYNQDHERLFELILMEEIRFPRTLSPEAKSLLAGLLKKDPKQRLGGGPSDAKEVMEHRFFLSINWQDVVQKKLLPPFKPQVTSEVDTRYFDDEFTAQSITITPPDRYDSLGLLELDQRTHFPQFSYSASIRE
Chain of KDR(h) (P35968 790-1356 limits assumed): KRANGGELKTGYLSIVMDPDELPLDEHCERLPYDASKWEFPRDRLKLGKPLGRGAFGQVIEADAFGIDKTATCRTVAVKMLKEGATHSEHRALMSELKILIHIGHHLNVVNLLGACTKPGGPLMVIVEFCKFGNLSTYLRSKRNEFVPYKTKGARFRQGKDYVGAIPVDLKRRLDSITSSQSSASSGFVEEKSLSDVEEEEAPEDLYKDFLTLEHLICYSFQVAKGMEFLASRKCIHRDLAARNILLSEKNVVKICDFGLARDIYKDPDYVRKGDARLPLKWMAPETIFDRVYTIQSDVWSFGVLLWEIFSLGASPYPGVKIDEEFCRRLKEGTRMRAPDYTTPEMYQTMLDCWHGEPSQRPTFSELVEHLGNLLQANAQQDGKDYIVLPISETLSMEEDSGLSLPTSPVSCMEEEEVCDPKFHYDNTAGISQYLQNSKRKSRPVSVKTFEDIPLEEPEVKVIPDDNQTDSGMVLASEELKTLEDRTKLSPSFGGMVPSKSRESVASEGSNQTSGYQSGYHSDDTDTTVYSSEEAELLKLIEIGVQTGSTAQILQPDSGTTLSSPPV
Chain of PKCθ(h) (Q04759 whole entry): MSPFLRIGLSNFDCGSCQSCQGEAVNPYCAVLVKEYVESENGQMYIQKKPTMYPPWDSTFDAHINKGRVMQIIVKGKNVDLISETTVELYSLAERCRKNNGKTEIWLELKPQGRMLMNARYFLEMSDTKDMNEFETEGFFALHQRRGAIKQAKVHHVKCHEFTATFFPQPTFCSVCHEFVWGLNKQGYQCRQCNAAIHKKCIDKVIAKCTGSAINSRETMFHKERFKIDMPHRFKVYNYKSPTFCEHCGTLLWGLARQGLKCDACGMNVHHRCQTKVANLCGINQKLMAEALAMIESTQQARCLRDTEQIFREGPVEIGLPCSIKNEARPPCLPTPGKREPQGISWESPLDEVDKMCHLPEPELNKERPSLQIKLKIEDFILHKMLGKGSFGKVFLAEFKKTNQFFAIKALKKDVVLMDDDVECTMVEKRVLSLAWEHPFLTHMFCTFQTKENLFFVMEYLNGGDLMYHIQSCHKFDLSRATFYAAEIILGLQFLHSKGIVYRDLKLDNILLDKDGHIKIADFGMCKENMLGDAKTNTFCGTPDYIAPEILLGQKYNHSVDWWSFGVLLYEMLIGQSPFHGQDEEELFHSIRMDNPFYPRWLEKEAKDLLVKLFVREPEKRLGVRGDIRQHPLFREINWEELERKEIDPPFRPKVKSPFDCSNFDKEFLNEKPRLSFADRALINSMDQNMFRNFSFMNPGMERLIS
Chain of CaMKIIγ(h) (Q13555 whole entry): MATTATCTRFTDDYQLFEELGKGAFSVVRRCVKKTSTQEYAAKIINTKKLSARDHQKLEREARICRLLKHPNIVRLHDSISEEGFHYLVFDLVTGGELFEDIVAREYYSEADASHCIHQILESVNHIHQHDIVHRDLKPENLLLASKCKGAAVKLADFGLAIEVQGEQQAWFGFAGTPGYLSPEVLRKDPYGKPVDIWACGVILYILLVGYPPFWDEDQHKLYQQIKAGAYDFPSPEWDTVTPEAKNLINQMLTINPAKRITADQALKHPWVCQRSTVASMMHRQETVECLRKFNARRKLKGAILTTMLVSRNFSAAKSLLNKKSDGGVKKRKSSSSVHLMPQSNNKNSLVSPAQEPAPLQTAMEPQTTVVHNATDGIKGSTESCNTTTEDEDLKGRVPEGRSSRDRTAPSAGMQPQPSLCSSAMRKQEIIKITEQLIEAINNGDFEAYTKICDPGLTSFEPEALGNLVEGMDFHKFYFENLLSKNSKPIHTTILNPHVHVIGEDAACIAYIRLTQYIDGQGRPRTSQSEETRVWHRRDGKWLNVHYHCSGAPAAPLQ
Chain of cKit(h) (P10721 544-976): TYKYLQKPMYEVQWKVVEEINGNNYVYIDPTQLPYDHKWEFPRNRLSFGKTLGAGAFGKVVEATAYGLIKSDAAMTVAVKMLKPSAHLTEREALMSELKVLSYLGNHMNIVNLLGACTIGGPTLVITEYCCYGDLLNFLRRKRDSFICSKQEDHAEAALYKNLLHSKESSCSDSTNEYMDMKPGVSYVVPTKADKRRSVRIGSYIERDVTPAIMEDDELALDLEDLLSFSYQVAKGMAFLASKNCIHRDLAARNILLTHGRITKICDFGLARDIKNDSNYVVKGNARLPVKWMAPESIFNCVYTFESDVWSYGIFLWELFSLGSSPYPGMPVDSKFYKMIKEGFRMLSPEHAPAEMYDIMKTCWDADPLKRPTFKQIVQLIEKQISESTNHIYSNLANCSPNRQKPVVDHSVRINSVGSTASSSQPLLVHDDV
Chain of CDK7/cyclinH/MAT1(h) (P50613 whole entry, chain 1 of 3): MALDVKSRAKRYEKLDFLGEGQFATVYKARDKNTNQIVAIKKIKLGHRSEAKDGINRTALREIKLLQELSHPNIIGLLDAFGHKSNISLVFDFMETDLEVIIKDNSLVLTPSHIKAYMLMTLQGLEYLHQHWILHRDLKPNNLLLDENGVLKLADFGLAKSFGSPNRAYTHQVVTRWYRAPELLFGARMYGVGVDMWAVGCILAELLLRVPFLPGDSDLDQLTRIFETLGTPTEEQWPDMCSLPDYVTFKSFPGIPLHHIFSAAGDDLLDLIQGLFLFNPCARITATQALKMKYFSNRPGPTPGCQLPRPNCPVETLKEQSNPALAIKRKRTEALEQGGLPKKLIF
Chain of CDK7/cyclinH/MAT1(h) (P51946 whole entry, chain 2 of 3): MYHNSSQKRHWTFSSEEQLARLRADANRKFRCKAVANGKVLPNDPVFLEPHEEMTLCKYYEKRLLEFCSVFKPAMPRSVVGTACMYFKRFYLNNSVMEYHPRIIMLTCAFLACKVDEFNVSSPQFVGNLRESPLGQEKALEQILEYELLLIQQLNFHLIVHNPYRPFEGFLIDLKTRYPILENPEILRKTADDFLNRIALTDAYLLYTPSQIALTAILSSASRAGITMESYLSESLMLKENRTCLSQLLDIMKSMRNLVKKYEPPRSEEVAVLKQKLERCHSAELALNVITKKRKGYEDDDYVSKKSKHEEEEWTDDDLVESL
Chain of CDK7/cyclinH/MAT1(h) (P51948 whole entry, chain 3 of 3): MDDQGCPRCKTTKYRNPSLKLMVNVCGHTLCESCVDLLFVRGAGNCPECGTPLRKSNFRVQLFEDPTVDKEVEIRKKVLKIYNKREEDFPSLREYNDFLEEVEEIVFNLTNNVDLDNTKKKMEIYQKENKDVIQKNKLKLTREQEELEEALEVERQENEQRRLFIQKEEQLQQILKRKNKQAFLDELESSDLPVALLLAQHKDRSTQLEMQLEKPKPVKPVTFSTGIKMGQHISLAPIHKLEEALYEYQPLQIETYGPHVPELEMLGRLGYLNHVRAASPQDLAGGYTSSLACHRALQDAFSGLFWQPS
Chain of CHK2(h) (O96017 5-543 limits assumed): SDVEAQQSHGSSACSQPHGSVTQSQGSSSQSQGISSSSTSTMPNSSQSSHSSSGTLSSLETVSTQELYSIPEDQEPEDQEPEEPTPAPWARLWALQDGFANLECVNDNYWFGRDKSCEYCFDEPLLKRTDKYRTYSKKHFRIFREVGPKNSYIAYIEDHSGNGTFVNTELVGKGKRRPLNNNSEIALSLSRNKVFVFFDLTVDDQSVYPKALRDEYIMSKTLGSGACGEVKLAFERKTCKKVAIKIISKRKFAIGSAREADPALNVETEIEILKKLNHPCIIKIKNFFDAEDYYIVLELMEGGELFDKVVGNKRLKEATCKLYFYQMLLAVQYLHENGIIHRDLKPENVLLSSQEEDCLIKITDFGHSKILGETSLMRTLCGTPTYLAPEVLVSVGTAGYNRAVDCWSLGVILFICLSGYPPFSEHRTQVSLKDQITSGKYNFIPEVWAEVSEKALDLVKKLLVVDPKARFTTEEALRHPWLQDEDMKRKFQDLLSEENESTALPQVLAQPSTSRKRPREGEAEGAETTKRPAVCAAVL
Chain of CHK2(I157T)(h) (O96017 5-543 I157T limits assumed): as the sequence (O96017 5-543 limits assumed) above, with I153T counted along it

| Binder | % activity, 100 µM (ZIPK(h)) [%] | % activity, 100 µM (Met(D1246N)(h)) [%] | % activity, 100 µM (CHK2(h)) [%] | % activity, 100 µM (KDR(h)) [%] | % activity, 100 µM (cKit(h)) [%] | % activity, 100 µM (Pim-3(h)) [%] | % activity, 100 µM (CaMKIIγ(h)) [%] | % activity, 100 µM (CHK2(I157T)(h)) [%] | % activity, 100 µM (PKBβ(h)) [%] | % activity, 100 µM (EphB1(h)) [%] | % activity, 100 µM (PKCµ(h)) [%] | % activity, 100 µM (PKCθ(h)) [%] | % activity, 100 µM (CDK7/cyclinH/MAT1(h)) [%] | % activity, 100 µM (HIPK2(h)) [%] | % activity, 100 µM (PDGFRβ(h)) [%] | % activity, 100 µM (Syk(h)) [%] | % activity, 100 µM (Rsk3(h)) [%] |
| --- | --- | --- | --- | --- | --- | --- | --- | --- | --- | --- | --- | --- | --- | --- | --- | --- | --- |
| KAFAKLAARLYRKALARQLGVAA [MMI-0400] | 13 | 31 | 54 | 94 | 43 | 80 | 3 | 41 | 98 | 58 | 14 | 76 | 47 | 90 | 53 | 9 | 71 |
| FAKLAARLYRKALARQLGVAA [MMI-0300] | 28 | 82 | 66 | 101 | 53 | 80 | 5 | 43 | 84 | 44 | 22 | 88 | 65 | 73 | 81 | 24 | 76 |
